In article PMC8951179:

Key:
[1] = biological target: GST-Ku70_1–250_Q65A/Q68A (human) (UniProt P12956); assay: pull-down; GST pull-down: 100 nM GST-Ku70 variant as bait on glutathione-agarose, 100 or 200 nM His6-IN; buffer A (20 mM Hepes pH 7.5, 100 mM NaCl, 7.5 mM MgCl2, 2 mM 2-mercaptoethanol, 50 µg/mL BSA, 0.1% NP40), room temperature; Western blot
[2] = biological target: GST-Ku70_1–250_S69A (human) (UniProt P12956); assay: as above

Substance: HIV-1 integrase carrying N-terminal His6-tag (natural protein)
- reduction in the protein binding efficiency (control Ku70 1–250) [1]: 10 to 15%
- IN binding activity, % of the wild-type protein [2]: 55 to 73%
